# Laboratory results: patent US20140073556A1 (published 2014)
# T1: recombinant protein comprising the whole extracellular part of IL1RI (UniProt P14778 18-336)
# T1 chain: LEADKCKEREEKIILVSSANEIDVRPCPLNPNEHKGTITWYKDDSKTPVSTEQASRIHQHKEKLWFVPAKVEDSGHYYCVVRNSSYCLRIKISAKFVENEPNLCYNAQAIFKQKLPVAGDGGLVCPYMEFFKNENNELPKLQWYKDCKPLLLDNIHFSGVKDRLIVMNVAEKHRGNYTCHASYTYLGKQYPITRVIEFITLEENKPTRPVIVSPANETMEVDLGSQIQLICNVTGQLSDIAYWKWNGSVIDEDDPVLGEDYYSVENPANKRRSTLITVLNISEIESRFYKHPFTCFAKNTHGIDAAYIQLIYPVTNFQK
# Target: T1, recombinant protein comprising the …
# Test: SPR
binder,measurement,value
"SGRKSSKMQA [Ilantafin peptide (SEQ ID NO:1), SGRKSSKMQA]",Kd,171 nM
